In publication PMC6624267 one finds stoichiometry N data, which are given here for one substance.

The assay deals with CARD11^8–172 (human) (UniProt Q9BXL7). Put plainly: SEC-MALS; CARD11^8–172 alone; measured 36.5 kDa against 39.4 kDa expected for a dimer.

The substance “CARD11^8–172 (from UniProt Q9BXL7 8-172) (domain or fragment)” came in with a stoichiometry N of 2.
